How the values were obtained:
[1] = system: T1, 18-mer peptide PQLPYPQPQLPYPQPQPF
T1 sequence: PQLPYPQPQLPYPQPQPF

[2] = system: T2, 33-mer peptide LQLQPFPQPQLPYPQPQLPYPQPQLPYPQPQPF from α2-gliadin
T2 sequence: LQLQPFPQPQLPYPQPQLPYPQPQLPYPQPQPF

Substance | Km (protease activity against 18-mer peptide) [1] | Vmax (protease activity against 18-mer peptide) (mg 18-mer peptide/ml) [1] | in vitro degradation of the peptide (protease activity) [2]
elongation factor Tu from Lactobacillus casei (strain P02503 A1 = DN_114001, CNCM I-1518), purified from culture supernatant | 0.643 mg 18-mer peptide/ml | 1.27 | The protease able to degrade in vitro the 33-mer as well as the 18-mer peptide
elongation factor G from Streptococcus thermophilus (strain P02638 F9 = DN_001343, CNCM I-2776), purified from culture supernatant | 0.794 mg 18-mer peptide/m1 | 1.5 | The protease able to degrade in vitro the 33-mer as well as the 18-mer peptide

From patent US20170145379
